# Experimental data published in the RNAGym collection of RNA variant scans (doi:10.1093/nar/gkz1192).
# B1: CPEB3 Ribozyme (parent)
# chain: UAACAGGGGGCCACAGCAGAAGCGUUCACGUCGCAGCCCCUGUCAGAUUCUGGUGAAUCUGCGAAUUCUGCUGUAUAUCUC
# Variants of: B1
# Experiment: self-cleavage, relative activity (ratio to wild type); higher = more cleavage; in vitro, sequencing
# In short: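 Relative activity was defined as the cleaved/total read fraction for a variant divided by the same fraction for the unmutated ribozyme. CPEB3 self-cleaving ribozyme libraries were made by rounds of error-prone PCR, barcoded, and transcribed in vitro with T7 RNA polymerase for 5 hours at 37°C, and cleavage ran through transcription plus a 15 min DNase I step before EDTA. Illumina sequencing of template-switched reverse transcripts gave the reads, and DNA sequencing mapped the barcodes. Averages come from three batches, using variants with at least 5 reads.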
row,Variant,self-cleavage
1,UAGCAGGGGGCCACAGCAGAAGCGUUCACGUCGCAGCCCCUGUCAGAUUCUGGUGAAUCUGCGAAUUUUGCUGUAUAUCUC,0.79
2,UAGCAGGGGGCCACAGCAGAAGCGUUCACGUCGCAGCCCCUGUCAGAUUCUGGUGAAUCUGCGAAUUGUGCUGUAUAUCUC,0.47
3,UAGCAGGGGGCCACAGCAGAAGCGUUCACGUCGCAGCCCCUGUCAGAUUCUGGUGAAUCUGCGAAUUAUGCUGUAUAUCUC,0.46
4,UAGCAGGGGGCCACAGCAGAAGCGUUCACGUCGCAGCCCCUGUCAGAUUCUGGUGAAUCUGUGAAUUCUGCUGUAUAUCUC,0.39
5,UAGCAGGGGGCCACAGCAGAAGCGUUCACGUCGCAGCCCCUGUCAGAUUCUGGUGAAUCUGAGAAUUCUGCUGUAUAUCUC,0.59
6,UAGCAGGGGGCCACAGCAGAAGCGUUCACGUCGCAGCCCCUGUCAGAUUCUGGUGAAUCUGGGAAUUCUGCUGUAUAUCUC,0.32
7,UAGCAGGGGGCCACAGCAGAAGCGUUCACGUCGCAGCCCCUGUCAGAUUCUGGUGAAUCUGCGAAUUCUGGUGUAUAUCUC,0.57
8,UAGCAGGGGGCCACAGCAGAAGCGUUCACGUCGCAGCCCCUGUCAGAUUCUGGUGAAUCUGCGAAUUCUGUUGUAUAUCUC,0.64
9,UAGCAGGGGGCCACAGCAGAAGCGUUCACGUCGCAGCCCCUGUCAGAUUCUGGUGAAUCUGCGAAUUCUGAUGUAUAUCUC,0.27
10,UAGCAGGAGGCCACAGCAGAAGCGUUCACGUCGCAGCCCCUGUCAGAUUCUGGUGAAUCUGCGAAUUCUGCUGUAUAUCUC,0.37
11,UAGCAGGUGGCCACAGCAGAAGCGUUCACGUCGCAGCCCCUGUCAGAUUCUGGUGAAUCUGCGAAUUCUGCUGUAUAUCUC,0.34
12,UAGCAGGGGGCCACAGCAGAAGCAUUCACGUCGCAGCCCCUGUCAGAUUCUGGUGAAUCUGCGAAUUCUGCUGUAUAUCUC,0.6
13,UAGCAGGGGGCCACAGCAGAAACGUUCACGUCGCAGCCCCUGUCAGAUUCUGGUGAAUCUGCGAAUUCUGCUGUAUAUCUC,0.29
14,UAGCAGGGGGCCACAGCAGAAUCGUUCACGUCGCAGCCCCUGUCAGAUUCUGGUGAAUCUGCGAAUUCUGCUGUAUAUCUC,0.15
15,UAGCAGAGGGCCACAGCAGAAGCGUUCACGUCGCAGCCCCUGUCAGAUUCUGGUGAAUCUGCGAAUUCUGCUGUAUAUCUC,0.47
16,UAGCAGUGGGCCACAGCAGAAGCGUUCACGUCGCAGCCCCUGUCAGAUUCUGGUGAAUCUGCGAAUUCUGCUGUAUAUCUC,0.45
17,UAGCAGGGGGCCACAGCAGAAGCGUUCACGUCGCAGCCCCUGUCAGAUUCUGGUGAAUCUGCGAAUUCUGCUAUAUAUCUC,1.22

row,Variant,self-cleavage
1,UAGCAGGGGGCCACAGCAGAAGCGUUCACGUCGCAGCCCCUGUCAGAUUCUGGUGAAUCUGCCAAUUCUGCUGUAUAUCUC,1.06
2,UAGCAGGGGGCCACAGCAGAAGCGUUCACGUCGCAGCCCCUGUCAGAUUCUGGUGAAUCUGCAAAUUCUGCUGUAUAUCUC,0.75
3,UAGCAGGGGGCCACAGCAGAAGCGUUCACGUCGCAGCCCCUGUCAGAUUCUGGUGAAUCUGCUAAUUCUGCUGUAUAUCUC,1.12
4,UAGCAGGGGGCCACAGCAGAAGCGAUCACGUCGCAGCCCCUGUCAGAUUCUGGUGAAUCUGCGAAUUCUGCUGUAUAUCUC,0.63
5,UAGCAGGGGGCCACAGCAGAAGCGUUCACGUCGCAGCCCCUGUCAGAUUCUGGUGAAUCUGCGAAUUCUGCUGUAUAUAUC,1.05
6,UAGCAGGGGGCCACAGCAGAAGCGUUCACGUCGCAGCCCCUGUCAGAUUCUGGUGAAUCUGCGAAUUCUGCUGUAUAUUUC,1
7,UAGCAGGGGGCCACAGCAGAAGCGUUCACAUCGCAGCCCCUGUCAGAUUCUGGUGAAUCUGCGAAUUCUGCUGUAUAUCUC,0.44
8,UAGCAGGGGGCCACAGCAGAAGCGUUCACGUCGCAGCCCCUGUCAGAUUCUGGUGAAUCUGCGAAUUCUGCUGUAUAUCUG,1.17
9,UAGCAGGGGGCCACAGCAGAAGCGUUCACGUCGCAGCCCAUGUCAGAUUCUGGUGAAUCUGCGAAUUCUGCUGUAUAUCUC,0.32
10,UAGCAGGGGGCCACAGCAGAAGCGUUCACGUCGCAGCCCGUGUCAGAUUCUGGUGAAUCUGCGAAUUCUGCUGUAUAUCUC,0.5
11,UAGCAGGGGGCCACAGCAGAAGCGUUCACGUCGCAGCCCUUGUCAGAUUCUGGUGAAUCUGCGAAUUCUGCUGUAUAUCUC,0.64
12,UAGCAGGGGGCCACAGCAGAAGCGUUCACGUCGCAGCCCCUGUCAGAUUCUGGUGAAUCUACGAAUUCUGCUGUAUAUCUC,0.53
13,UAGCAGGGGGCCACAGCAGAAGCGUUCACGUCGCAGCCCCUGUCAGAUUCUGGUGAAUCUUCGAAUUCUGCUGUAUAUCUC,0.8
14,UAGCAGGGGGCCACAGCAGAAGCGUUCACGUCGCAGCCCCUGUCAGAUUUUGGUGAAUCUGCGAAUUCUGCUGUAUAUCUC,0.94
15,UAGCAGGGGGCCACAGCAGAAGCGUUCACGUCGCAGCCCCUGUCAGAUUAUGGUGAAUCUGCGAAUUCUGCUGUAUAUCUC,0.82
16,UAGCAGGGGGCCACAGCAGAAGCGUUCACGUCGCAGCCCCUGUCAGAUUGUGGUGAAUCUGCGAAUUCUGCUGUAUAUCUC,0.8
17,UAGCACGGGGCCACAGCAGAAGCGUUCACGUCGCAGCCCCUGUCAGAUUCUGGUGAAUCUGCGAAUUCUGCUGUAUAUCUC,0.77
